Columns and labels:
Assay in all cases: AUC
[1] = molecular target: Mouse E-cadherin EC1-2 with one alanine inserted between residues 2 and 3 (mouse)
[2] = molecular target: Mouse cadherin-11 EC1-2 F8A (mouse)
[3] = molecular target: Mouse E-cadherin EC1-2 wild-type (mouse)
[4] = molecular target: Mouse E-cadherin EC1-2 P5A P6A (mouse)
[5] = molecular target: Mouse N-cadherin EC1-2 P5A P6A (mouse)
[6] = molecular target: Mouse E-cadherin EC1-2 P5S P6S (mouse)
[7] = molecular target: Mouse cadherin-11 EC1-2 wild type (mouse)
[8] = molecular target: Mouse E-cadherin EC1-2 P5A (mouse)
[9] = molecular target: Mouse E-cadherin EC1-2 P5G P6G (mouse)
[10] = molecular target: Mouse E-cadherin EC2-3 F108W del-TQE (mouse)
[11] = molecular target: Mouse E-cadherin EC1-2 W2F (mouse)
[12] = molecular target: Mouse E-cadherin EC1-2 E11D (mouse)
[13] = molecular target: Mouse E-cadherin EC1-2 P6A (mouse)
[14] = molecular target: Mouse N-cadherin EC1-2 wild type (mouse)
[15] = molecular target: Mouse E-cadherin EC1-2 with two alanines inserted between residues 2 and 3 (mouse)

Substance: Mouse E-cadherin EC1-2 with one alanine inserted between residues 2 and 3 (domain or fragment)
- Kd [1]: 1520 µM

Substance: Mouse cadherin-11 EC1-2 F8A (domain or fragment)
- Kd [2]: 3.7 µM

Substance: Mouse E-cadherin EC1-2 wild-type (domain or fragment)
- Kd [3]: 96.5 µM

Substance: Mouse E-cadherin EC1-2 P5A P6A (domain or fragment)
- Kd [4]: 3.7 µM

Substance: Mouse N-cadherin EC1-2 P5A P6A (domain or fragment)
- Kd [5]: 3.6 µM

Substance: Mouse E-cadherin EC1-2 P5S P6S (domain or fragment)
- Kd [6]: 2.9 µM

Substance: Mouse cadherin-11 EC1-2 wild type (domain or fragment)
- Kd [7]: 25.2 µM

Substance: Mouse E-cadherin EC1-2 P5A (domain or fragment)
- Kd [8]: 2.9 µM

Substance: Mouse E-cadherin EC1-2 P5G P6G (domain or fragment)
- Kd [9]: 2.7 µM

Substance: Mouse E-cadherin EC2-3 F108W del-TQE (domain or fragment)
- Kd [10]: 46.5 µM

Substance: Mouse E-cadherin EC1-2 W2F (domain or fragment)
- Kd [11]: 246 µM

Substance: Mouse E-cadherin EC1-2 E11D (domain or fragment)
- Kd [12]: 71.2 µM

Substance: Mouse E-cadherin EC1-2 P6A (domain or fragment)
- Kd [13]: 4.8 µM

Substance: Mouse N-cadherin EC1-2 wild type (domain or fragment)
- Kd [14]: 25.8 µM

Substance: Mouse E-cadherin EC1-2 with two alanines inserted between residues 2 and 3 (domain or fragment)
- Kd [15]: 195 µM
